Measurements: publication PMC6803476, “Nanodomain Clustering of the Plant Protein Remorin by Solid-State NMR” (Frontiers in Molecular Biosciences, 2019)

Molecular target: the molecule itself
Test: negative staining electron microscopy; purified protein incubated overnight at 30°C with preformed liposomes (protein/lipid 1/20; DMPC-d54/β-sitosterol 85/15 or DMPC-d54/β-sitosterol/PIP mix 75/15/10), 2% uranyl acetate stain; filaments mostly in samples without PIPs, very few with PIPs

B1: REM_(86-198), truncated StREM1.3 bearing only the coiled-coil domain and RemCA (domain or fragment, Solanum tuberosum (potato), UniProt P93788 86-198, looked up)
chain: TEKRVSLIKAWEESEKSKAENKAQKKVSAIGAWENSKKANLEAELKKMEEQLEKKKAEYTEKMKNKIALLHKEAEEKRAMIEAKRGEDLLKAEELAAKYRATGTAPKKILGIF
notes: Remorin group 1 isoform 3 (StREM1.3) of potato (Solanum tuberosum), residues 86-198: coiled-coil segment and the C-terminal membrane anchor RemCA; source: E. coli BL21-DE3 (pET24 vector), purified as described in Martinez et al. (2018), HiPrep gel filtration buffer exchange
  binding result: binds
